# Laboratory results as given in the nanobody polyreactivity screen of Harvey et al. (2022).
# Assay: yeast display, Sf9 membrane polyspecificity reagent, FACS + sequencing; frameworks hold sequencing errors
# How it was run: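 Synthetic nanobody libraries on Saccharomyces cerevisiae BJ5465 were galactose-induced for 36–48 hours, stained 1 hour at 4 °C with 10% biotinylated, detergent-solubilized Sf9 membrane reagent and enriched on streptavidin microbeads. FACS then separated cells into low and high (top ~1%) gates by anti-HA (expression) and streptavidin (reagent binding) fluorescence. Genes were colony-PCR amplified, MiSeq 2 × 250 sequenced and CDR-length filtered. A clone's polyreactivity label is that of its gate of origin.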
row,Sequence,polyreactivity (PSR sort gate)
1,QVQLVESGGGLVQAGGSLRLSWAASGSFFKRNAMGSYRQAPGKEREFVAAITYNGGSTYYADSVKGRFTISRDNAMTTVYLQMNSLKPEDTAVYDCNNLYSRAQFRGGDYWAQGTQVTVSS,high polyreactivity
2,QVHLVESGGGLVQAGGSLRLSCAASGSIFTRYVMGWYRQAPGKERELVAAISGRGSSTYYADSVKGRFKISRDYAKNTVYLQMNSLKPEDTAVYYCAAEIVVFYSEGQRNTFYYWGQGTQVTVSS,high polyreactivity
3,QVQLVESGGGLVQAGGSLRLSCAASGSTLPGNVMGWYRQAPGKERELVAAISKRGASTYYADSVKGRFTISRDNAKYTVYLLMNSLKPEDTAVYYCATRTRGSVFRFDYWGQGTQVTVSS,high polyreactivity
4,QVQLVESGGGLVQAGGSLRISCAASGRICAYNAMGWYRQAPGKERELVAAITWSGGTTYYADSVKGRCTISRDNAKNSVYFQRNSLKPEVTAVYYCAATVGAASRYYYWAQGTQVTVSS,high polyreactivity
5,QVQLVESGGGLVQAGGSLRLSCAASGNIFSSYAMGWYRQAPGKERELVARITTSAGRTYYADSVKGRFTISRDNAKNTVYLQMNSLKREETAVYSCAARGQSAYSIWRYYYWGQGTQVTVSS,high polyreactivity
6,QVQLEESGGGLVQAGGSLRLSCAASGITFLTYAMGWYRQATVKERELVAGITSGGTTYYADSVKGRFTISRDNAMNTVYLQMNSLKPEDTAVYYCNADLQEYQSYDYWGQGTQVTVSS,low polyreactivity
7,QVQLVESGGGLVQAGGSLRLSCAASGFTFAYYAMGWYRQAPGKERELVAAISSGDNTNYADSVKGRFTISRDNAKNTVYLQMNSLKPEDTAVYYCNAEYNFKWWGPYWYYVKDDYWGQGTQVTVSS,low polyreactivity
8,QVQLVDSGGGLVQAGGSLRLSCAASGRIFPVYAMAWYRHAPGKEREMVAAITKSGGNTYYADSVKGRFTISRDNAKYTVYLQMNSMKPEDTAVYYCAADSSAKMGPQYYYALDYWGQGTKVTVSS,low polyreactivity
9,QVQLVESGGGLVQAGGRLRLSCAASGITYTVYAMGWYRQAPGKERELLAAISSSGSTTYADSVNGRFTISRDNAKNTVYLLMNSLKPEDTAVYDCAAEGYYRFSTAYFRLKYEYWGQGTQVTVSS,low polyreactivity
10,QVQHVESGGGLVQAGGSLRLSCAASGSNVVSNAMGWYRHATGKEREFVATISSGGGTTYADSVKGRFTISRDNAKITVYLQMNSLKAEDTAVYYCAAGHFVGREWVKFDYWGQGTQVTVSS,low polyreactivity
11,QVQLVESGGGLVQAGGSLRLSCAASGFIFQAYAMGWYRQAPGKERELVAAISSSGGSTYYADSVTGRFTISRDNAKNTVYLQMNSLKPEDTAVYYCAALRYVKMLAQAYEYWGQGTQVTVSS,high polyreactivity
12,QVQLVESGGGLVQAGGSLRLICAASGRTFRYNAMGWYRQAPGKERELVAAITQSGGSTYYADSVKGRFTISRDNAKNTVYLQMNSLKPEDTAVYYCAKVRERINYDYWGQGTQVTVSS,low polyreactivity
13,QVQLVESGGGLLQAGGSLRLSCAASGFIFADNAMGRYIQAPGKERELVAGITSGGITNYADSVKGRFTISRDNAKNTVYLQMNSLKPEDSAVYYCAVYYRRWLSRYDYWGQGTQVTVSA,low polyreactivity
14,QVQLVESGGGLVQAGGSLRLSCAASGFIFYRYAMGWYRQAPGKERELVAAITSDGSTYYADSVKGRFTISRDNAKNTVYLQMNSLKPEDTAVYYCNAERWGNSVGNYWGQGTQVTVSS,high polyreactivity
15,QVQLVESGGGLVQAGGSLRLSCAASGRIFVHYAMGWYRQAPGKEREWVAAITSGSSTNYADSVKGRFTISRDNAKNTVYLQMNSLKPEDTAVYYCAVDDWLDWLCADFGYWGQGTQVTVSS,low polyreactivity
16,QVQLVESGGGLVQAGGSLRISCAASGLTFRRNAMGGYRQAPGKERELFAAITASGGSTYYADSVTGRFTISRDNAKNTVFLQMNSLKPEETAVYYSAAVNYRWYSRNYDHYYWGQGTQVTVSS,high polyreactivity
17,QVQLVESGGGLVQAGGSLRLSCAASGLIISWYAMGWNRQEPGTERELVAAISSGGSTTYADSVKGRFTISRDNAKNTVYLQMNSLKPEDTAVYYCNADQVFGYNYWGQGTQLTVSS,high polyreactivity
